Data taken from patent publication US20260151519A1 (AKTIS ONCOLOGY, published 2026).
Bridges are numbered along the chain shown (N, C = ends). Primed or numbered codes have the meaning given here. Where no end group is shown, it is not given here. [ ]: non-standard residue; d: D form. The star is where a group is joined. DOTA = O=C(O)CN1CCN(CC(=O)O)CCN(CC(=O)*)CCN(CC(=O)O)CC1; Biotin = O=C1N[C@H]2[C@H](CS[C@H]2CCCCC(=O)*)N1; hydroxy‑norleucine = hydroxy-norleucine residue; Lys(Me3) = C[N+](C)(C)CCCC[C@H](N)C(=O)O; Arg(Me2s) = CN=C(NC)NCCC[C@H](N)C(=O)O; Cit = NC(=O)NCCC[C@H](N)C(=O)O; PEG4″ = 4(ethylene glycol); PEG4′ = not defined here

What was measured:
Human Nectin-4 [1] = molecular target: T1, Human Nectin-4 (human, UniProt Q96NY8 32-349, limits assumed); assay: Table 2B (DELFIA or SPR)
T1 construct: Protein immobilised on the SPR chip; also called target protein
T1 sequence: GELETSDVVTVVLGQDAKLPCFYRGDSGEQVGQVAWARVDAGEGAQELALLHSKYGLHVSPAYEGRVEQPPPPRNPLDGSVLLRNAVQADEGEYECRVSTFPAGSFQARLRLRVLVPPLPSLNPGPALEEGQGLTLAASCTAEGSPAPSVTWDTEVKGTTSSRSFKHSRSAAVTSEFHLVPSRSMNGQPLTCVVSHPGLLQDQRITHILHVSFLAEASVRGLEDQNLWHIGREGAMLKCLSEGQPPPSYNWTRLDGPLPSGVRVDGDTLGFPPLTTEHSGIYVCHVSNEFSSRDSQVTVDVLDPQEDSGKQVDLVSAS

[2] = molecular target: T2, Human Nectin-4 expressed on cells (human, UniProt Q96NY8 32-510); assay: radioligand binding, 177Lu-labelled compound, HT-1376 cells
T2 construct: Endogenous on HT-1376 cells; also called endogenous Nectin-4 on HT-1376 cells; cell surface Nectin-4
T2 sequence: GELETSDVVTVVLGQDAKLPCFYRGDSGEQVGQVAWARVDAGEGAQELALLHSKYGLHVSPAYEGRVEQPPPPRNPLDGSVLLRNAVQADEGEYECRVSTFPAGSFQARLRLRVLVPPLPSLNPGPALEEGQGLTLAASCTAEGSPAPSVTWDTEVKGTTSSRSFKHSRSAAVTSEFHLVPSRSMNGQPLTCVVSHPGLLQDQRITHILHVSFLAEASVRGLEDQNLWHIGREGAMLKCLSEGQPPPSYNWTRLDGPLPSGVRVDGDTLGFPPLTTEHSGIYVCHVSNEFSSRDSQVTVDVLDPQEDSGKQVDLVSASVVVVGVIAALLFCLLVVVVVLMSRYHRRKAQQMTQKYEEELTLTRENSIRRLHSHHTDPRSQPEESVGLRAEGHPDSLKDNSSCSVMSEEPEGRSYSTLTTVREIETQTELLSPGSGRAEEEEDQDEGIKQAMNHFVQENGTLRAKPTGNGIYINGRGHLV
Method: On the day of assay, culture medium was removed and PBS was added to cells. Association kinetics were measured at three concentrations of radioligand, and this was performed by the addition of lutetium-177 radioconjugates to cells at various time points from 1 to 60 minutes.

[3] = molecular target: T2, Human Nectin-4 expressed on cells; assay: DELFIA whole-cell competition against a europium-chelate miniprotein
Method: A whole cell binding assay was used to estimate the equilibrium binding affinity (KD) or binding inhibition constant (Kᵢ) of miniprotein ligands to cells expressing a target of interest. Cells were dispensed into a 384-well plate and incubated at 37° C. in 5% CO₂ overnight. The next day cells were gently washed once in assay buffer prior to addition of europium chelated ligand. […] For Kᵢ determination, a single concentration (KD equivalent concentration) of europium-chelate miniprotein was added to each well followed immediately by the addition of unconjugated competing ligand over 12 different concentrations ranging from 100 times below and above expected Kᵢ values as before. […] Cells were then washed three times at room temperature with 1×PBS followed by the addition of 2 M HCl and incubated for two h at 37° C. Following this step, 2 M NaOH and fluorescent inducer solution were added to each well and incubated for 30 minutes at room temperature according to the manufacturer's protocol (Perkin-ELMER DELFIA assay). Plates were read on an Envision plate reader and a curve-fitting model was applied to estimate KD and Kᵢ values using GraphPad Prism software.

Human Nectin-4 [4] = molecular target: T1, Human Nectin-4; assay: SPR, Biacore T200, target immobilised, 1:1 model
Method: Surface plasmon resonance (SPR) analyses were performed using Biacore T200 (GE Healthcare). Target protein (“ligand”) was immobilized to a CM5 Series S sensor chip (Cytiva) using amine-coupling chemistry. Running buffer was 0.05% surfactant P20 in HEPES buffered saline (HBS-P), pH 7.4 (Cytiva). Immobilization was performed at 25° C. Carboxyl groups in each flow cell were activated using a 1:1 mixture of 0.4 M 1-ethyl-3-(3-dimethylaminopropyl)-carbodiimide in water (EDC) and 0.1 M N-hydroxysuccinimide in water (NHS) for 7 minutes. The ligand was prepared in 10 mM sodium acetate pH 5 (Cytiva). Pulsatile injections were made to target a specific immobilization level. Any remaining amine-reactive esters on the chip surface were blocked with a 7-minute injection of 1 M ethanolamine, pH 8.5. Three 10-second pulses of 50 mM sodium hydroxide were then made to remove any unbound ligand. Reference cells were modified using amine coupling chemistry, omitting ligand injection.
Increase in signal (RU) is proportional to an increase in binding events between the analyte and ligand surface. The injection was then stopped, and dissociation was measured. […] Measured association (kₐ, 1/Ms⁻¹) and dissociation (kd, s⁻¹) were fit to a 1:1 binding model to calculate a dissociation equilibrium constant, KD(M) for each analyte.

{Biotin-PEG4″}-CEYDEEFFTALA[Cit]LRGDDICSYIQA[hydroxy‑norleucine]FQYLPGLCIEEILDNLGCS-OH (designed binder, disulfide 1-34, 20-44) [C170]
Kd (Human Nectin-4 [1]): 8.8 nM

{DOTA-PEG4′}-CEYDEEFFTALKRLRGGDICYYIKKKFKKVPKLCIEEILDKLGC-NH2 (designed binder, cysteine pairing not given here; also: 177Lu label on DOTA) [C215]
Kd [2]: 5.01 nM

{DOTA-PEG4″}-CEYDEEFFTALKRLRGGDICYYIKKKFDYLPKLCIEEILDNLGC-NH2 (designed binder, disulfide 1-34, 20-44; also: 177Lu-labelled in the radioligand assay) [C214]
Kd [2]: 3.03 nM

Ac-CEYDEQFFTALKRLRGGDICYYISAQFNTLPDLCIEEILENLGC-OH (designed binder, disulfide 1-34, 20-44) [C100]
Kd (Human Nectin-4 [1]): 4.8 nM

Ac-CEYDEQFFTALSSLRGGDICYYIQEQFANVPGICIEEILDNLGC (designed binder, disulfide 1-34, 20-44) [C136]
Kd (Human Nectin-4 [1]): 36.5 nM

{Biotin-PEG4″}-CEYDEQFFTALSSLRGGDICYYIQEQFANVPGICIEEILDNLGCS (designed binder, disulfide 1-34, 20-44) [C139]
Kd (Human Nectin-4 [1]): 25.2 nM

{Biotin-PEG4″}-CEYDEQFFTALKRLRGGDICYYISAQFNTLPDLCIEEILENLGC-OH (designed binder, disulfide 1-34, 20-44) [C103]
Kd (Human Nectin-4 [1]): 6.6 nM

Ac-CEYDEEFFTALKKLRGGDICYYIQQAFNYLPGICIEEILDNLGC-OH (designed binder, disulfide 1-34, 20-44) [C104]
Kd (Human Nectin-4 [1]): 3.7 nM

Ac-CEYDEEFFTALSRLRGGDICYYIQQAFQYLPGLCIEEILDNLGC-NH2 (designed binder, disulfide 1-34, 20-44) [C132]
Kd (Human Nectin-4 [1]): 30.1 nM

{DOTA-PEG4″}-CEYDEEFFTALKRLRGGDICYYIQASFQYLPGLCIEEILDNLGCS (designed binder, disulfide 1-34, 20-44; also: 177Lu-labelled in radioligand assay) [C109]
Kd [2]: 8.72 nM

{DOTA-PEG4″}-CEYDEEFFTALKRLRGGDICYYIQAKFQYLPKLCIEEILDNLGCS (designed binder, disulfide 1-34, 20-44; also: 177Lu-labelled in the radioligand assay) [C117]
Kd [2]: 2.64 nM

{Biotin-PEG4″}-CEYDEEFFTALARLRGADICQYIQA[Lys(Me3)]FQYLPALCIEEILDNLGCS-OH (designed binder, disulfide 1-34, 20-44) [C252]
Ki [3]: 0.76 nM

{Biotin-PEG4″}-CEYDEQFFTALARLRGADICEYIQARFQYLPGLCIEEILDNLGCS-OH (designed binder, disulfide 1-34, 20-44) [C280]
Ki [3]: 0.54 nM

{Biotin-PEG4″}-CEYDEQFFTALARLRGGDICEYIQA[Arg(Me2s)]FQYLPGLCIEEILDNLGCS (designed binder, disulfide 1-34, 20-44) [C267]
Kd (Human Nectin-4 [4]): 0.586 nM
Ki [3]: 0.76 nM

{Biotin-PEG4″}-CEYDEQFFTALARLRGADICEYIQA[Lys(Me3)]FQYLPGLCIEEILDNLGCS-OH (designed binder, disulfide 1-34, 20-44) [C262]
Ki [3]: 1.04 nM

{Biotin-PEG4″}-CDYDEQFFTALKRLRGGDICEYIQA[Lys(Me3)]FQYLPGECIEEILDNLGCS-OH (designed binder, disulfide 1-34, 20-44) [C255]
Ki [3]: 0.66 nM

{Biotin-PEG4″}-CEYDEQFFTALARLRGGDICEYIQARFQYLPGLCIEEILDNLGCS (designed binder, disulfide 1-34, 20-44) [C264]
Kd (Human Nectin-4 [4]): 0.476 nM
Ki [3]: 0.53 nM

{Biotin-PEG4″}-CDYDEQFFTALKRLRGADICEYIQA[Lys(Me3)]FQYLPGECIEEILDNLGCS-OH (designed binder, disulfide 1-34, 20-44) [C257]
Ki [3]: 0.66 nM

{Biotin-PEG4″}-CEYDEQFFTALARLRGGDICYYIQEQFATVPGLCIEEILDQLGCS-OH (designed binder, disulfide 1-34, 20-44) [C131]
Kd (Human Nectin-4 [1]): 12.4 nM

{Biotin-PEG4″}-CDYDEQFFTALA[Cit]LRGGDICEYIQA[Lys(Me3)]FQYLPGLCIEEILDNLGCS-OH (designed binder, disulfide 1-34, 20-44) [C259]
Kd (Human Nectin-4 [4]): 0.226 nM

{Biotin-PEG4″}-CEYDEEFFTALKKLRGGDICYYIQQAFNYLPGICIEEILDNLGC (designed binder, disulfide 1-34, 20-44) [C107]
Kd (Human Nectin-4 [1]): 3.38 nM

{Biotin-PEG4″}-CEYDEEFFTALARLRGGDICYYIQA[hydroxy‑norleucine]FQYLPGLCIEEILDNLGCS-OH (designed binder, disulfide 1-34, 20-44) [C173]
Kd (Human Nectin-4 [1]): 5 nM

{Biotin-PEG4″}-CEYDEEFFTALARLRGDDICSYIQAKFQYLPGLCIEEILDNLGCS-OH (designed binder, disulfide 1-34, 20-44) [C143]
Kd (Human Nectin-4 [1]): 0.55 nM
Kd (Human Nectin-4 [4]): 0.238 nM

{Biotin-PEG4″}-CEYDEEFFTALARLRGGDICQYIQAKFQYLPGQCIEEILDNLGCS (designed binder, disulfide 1-34, 20-44) [C149]
Kd (Human Nectin-4 [1]): 0.75 nM
Kd (Human Nectin-4 [4]): 0.297 nM

{Biotin-PEG4″}-CEYDEQFFTALKRLRGADICSYIQASFQYLPGLCIEEILDNLGCS (designed binder, disulfide 1-34, 20-44) [C185]
Kd (Human Nectin-4 [1]): 1 nM
Kd (Human Nectin-4 [4]): 0.371 nM

Ac-CEYDEQFFTALARLRGGDICYYIQEQFATVPGLCIEEILDQLGC-NH2 (designed binder, disulfide 1-34, 20-44) [C128]
Kd (Human Nectin-4 [1]): 10.1 nM

Ac-CEYDEQFFTALKALRGGDICYYIQASFNYLPDLCIEEILDNLGC-NH2 (designed binder, disulfide 1-34, 20-44) [C112]
Kd (Human Nectin-4 [1]): 6.24 nM
